In PMC9986714:

Columns and labels:
[1] = target: Bovine cathepsin C (bovine)
[2] = target: Bovine cathepsin H (bovine)
[3] = target: Carica papaya papain (Carica papaya) (UniProt P00784)
[4] = target: Cathepsin B (human)
[5] = target: Cathepsin F (human) (UniProt Q9UBX1)
[6] = target: Cathepsin S (human) (UniProt P25774)
[7] = target: Cathepsin X (human) (UniProt Q9UBR2)
[8] = target: Fasciola hepatica cathepsin L1 (Fasciola hepatica)
[9] = target: Fasciola hepatica cathepsin L2 (Fasciola hepatica)
[10] = target: Fasciola hepatica cathepsin L3 (Fasciola hepatica)
[11] = target: Human cathepsin K (human) (UniProt P43235)
[12] = target: Human cathepsin L (human)
[13] = target: Human cathepsin V (human) (UniProt O60911)
Sequence of Human cathepsin V (human) (O60911 114-334): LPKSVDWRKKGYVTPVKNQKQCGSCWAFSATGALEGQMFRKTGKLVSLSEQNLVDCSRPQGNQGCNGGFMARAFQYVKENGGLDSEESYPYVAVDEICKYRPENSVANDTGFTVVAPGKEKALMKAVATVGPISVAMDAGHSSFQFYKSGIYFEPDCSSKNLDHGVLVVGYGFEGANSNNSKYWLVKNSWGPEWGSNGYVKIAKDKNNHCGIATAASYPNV

Sequence of Carica papaya papain (Carica papaya) (P00784 134-345): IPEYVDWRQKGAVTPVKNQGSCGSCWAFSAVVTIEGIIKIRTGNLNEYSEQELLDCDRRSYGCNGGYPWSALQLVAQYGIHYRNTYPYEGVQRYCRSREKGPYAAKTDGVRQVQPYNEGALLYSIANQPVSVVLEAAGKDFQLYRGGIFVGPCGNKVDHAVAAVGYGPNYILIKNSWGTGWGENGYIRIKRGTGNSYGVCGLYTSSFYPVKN
Sequence of Human cathepsin K (human) (P43235 115-329): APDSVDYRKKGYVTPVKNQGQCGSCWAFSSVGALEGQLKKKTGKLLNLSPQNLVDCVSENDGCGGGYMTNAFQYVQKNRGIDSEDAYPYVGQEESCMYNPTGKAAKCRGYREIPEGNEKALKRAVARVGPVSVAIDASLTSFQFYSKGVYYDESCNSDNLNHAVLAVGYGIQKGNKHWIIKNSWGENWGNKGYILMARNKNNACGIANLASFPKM
Sequence of Cathepsin S (human) (P25774 115-331): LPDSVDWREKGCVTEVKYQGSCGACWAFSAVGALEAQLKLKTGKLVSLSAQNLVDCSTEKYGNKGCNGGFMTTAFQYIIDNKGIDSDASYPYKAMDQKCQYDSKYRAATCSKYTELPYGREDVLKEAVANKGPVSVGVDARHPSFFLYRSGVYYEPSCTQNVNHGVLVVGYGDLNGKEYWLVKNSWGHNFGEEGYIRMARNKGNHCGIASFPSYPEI
Sequence of Cathepsin F (human) (Q9UBX1 271-484): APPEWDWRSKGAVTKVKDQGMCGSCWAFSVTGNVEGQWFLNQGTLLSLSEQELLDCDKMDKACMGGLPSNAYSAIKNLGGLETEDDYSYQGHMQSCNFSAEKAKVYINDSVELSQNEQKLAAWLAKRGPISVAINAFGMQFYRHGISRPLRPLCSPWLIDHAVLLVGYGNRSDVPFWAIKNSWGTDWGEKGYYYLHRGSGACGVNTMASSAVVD
Sequence of Cathepsin X (human) (Q9UBR2 62-303): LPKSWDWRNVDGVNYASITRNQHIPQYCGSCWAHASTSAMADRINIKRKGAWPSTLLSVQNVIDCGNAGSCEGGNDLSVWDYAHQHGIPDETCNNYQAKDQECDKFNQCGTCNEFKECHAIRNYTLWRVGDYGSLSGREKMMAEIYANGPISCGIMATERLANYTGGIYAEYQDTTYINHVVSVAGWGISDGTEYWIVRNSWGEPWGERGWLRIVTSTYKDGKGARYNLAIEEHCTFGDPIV

Question: Which IC50 of inhibition of protease activity (kinetic assay, 130 μM H-Gly-Arg-AMC, 0.4 nM cathepsin C, 100 mM Na acetate pH 5.5 with 50 mM NaCl, 37 °C, 15 min preincubation) [1] does the source give for “Fasciola hepatica cystatin-like stefin 2 (FhCyLS-2), recombinant (natural protein)” here?
Answer: Its IC50 of inhibition of protease activity (kinetic assay, 130 μM H-Gly-Arg-AMC, 0.4 nM cathepsin C, 100 mM Na acetate pH 5.5 with 50 mM NaCl, 37 °C, 15 min preincubation) is 66 nM.

Question: What about the IC50 of inhibition of protease activity (kinetic assay, 100 μM H-Arg-AMC, 1.9 nM cathepsin H, 50 mM MES pH 6.5, 37 °C, 15 min preincubation) [2] of the same substance?
Answer: The IC50 of inhibition of protease activity (kinetic assay, 100 μM H-Arg-AMC, 1.9 nM cathepsin H, 50 mM MES pH 6.5, 37 °C, 15 min preincubation) was 2.5 nM.

Question: What about the IC50 of inhibition of protease activity (kinetic assay, 100 μM Z-Phe-Arg-AMC, 0.5 nM papain, 100 mM Na acetate pH 5.5, 37 °C, 15 min preincubation) [3] of the same substance?
Answer: The IC50 of inhibition of protease activity (kinetic assay, 100 μM Z-Phe-Arg-AMC, 0.5 nM papain, 100 mM Na acetate pH 5.5, 37 °C, 15 min preincubation) was 1.1 nM.

Question: What about the IC50 of inhibition of protease activity (kinetic assay, 53 μM Z-Phe-Arg-AMC, 0.2 nM cathepsin B, 100 mM Na acetate pH 5.5, 37 °C, 15 min preincubation) [4] of the same substance?
Answer: The IC50 of inhibition of protease activity (kinetic assay, 53 μM Z-Phe-Arg-AMC, 0.2 nM cathepsin B, 100 mM Na acetate pH 5.5, 37 °C, 15 min preincubation) was 2.1 nM.

Question: What about the IC50 of inhibition of protease activity (kinetic assay, 27 μM Z-Phe-Arg-AMC, 1.2 nM cathepsin F, 100 mM Na acetate pH 5.5, 37 °C, 15 min preincubation) [5] of the same substance?
Answer: Its IC50 of inhibition of protease activity (kinetic assay, 27 μM Z-Phe-Arg-AMC, 1.2 nM cathepsin F, 100 mM Na acetate pH 5.5, 37 °C, 15 min preincubation) is 49 nM.

Question: What about the IC50 of inhibition of protease activity (kinetic assay, 17 μM Z-Val-Val-Arg-AMC, 0.1 nM cathepsin S, 50 mM MES pH 6.5, 37 °C, 15 min preincubation) [6] of the same substance?
Answer: Its IC50 of inhibition of protease activity (kinetic assay, 17 μM Z-Val-Val-Arg-AMC, 0.1 nM cathepsin S, 50 mM MES pH 6.5, 37 °C, 15 min preincubation) is 1.1 nM.

Question: And the IC50 of inhibition of protease activity (kinetic assay, 87 μM Abz-Phe-Arg-Phe(NO2)-OH, 1.2 nM cathepsin X, 100 mM Na acetate pH 5.0, 37 °C, 15 min preincubation) [7]?
Answer: Its IC50 of inhibition of protease activity (kinetic assay, 87 μM Abz-Phe-Arg-Phe(NO2)-OH, 1.2 nM cathepsin X, 100 mM Na acetate pH 5.0, 37 °C, 15 min preincubation) is 8.4 µM.

Question: And the IC50 of inhibition of protease activity (kinetic assay, 20 μM Z-Phe-Arg-AMC, 2 nM FhCL1, 50 mM MES pH 5.5, 37 °C, 15 min preincubation) [8]?
Answer: Its IC50 of inhibition of protease activity (kinetic assay, 20 μM Z-Phe-Arg-AMC, 2 nM FhCL1, 50 mM MES pH 5.5, 37 °C, 15 min preincubation) is 2.5 nM.

Question: What about the IC50 of inhibition of protease activity (kinetic assay, 20 μM Z-Phe-Arg-AMC, 5 nM FhCL2, 50 mM MES pH 6.0, 37 °C, 15 min preincubation) [9] of the same substance?
Answer: Its IC50 of inhibition of protease activity (kinetic assay, 20 μM Z-Phe-Arg-AMC, 5 nM FhCL2, 50 mM MES pH 6.0, 37 °C, 15 min preincubation) is 10 nM.

Question: And the IC50 of inhibition of protease activity (kinetic assay, 20 μM Z-Gly-Pro-Arg-AMC, 6 nM FhCL3, 50 mM MES pH 5.5, 37 °C, 15 min preincubation) [10]?
Answer: Its IC50 of inhibition of protease activity (kinetic assay, 20 μM Z-Gly-Pro-Arg-AMC, 6 nM FhCL3, 50 mM MES pH 5.5, 37 °C, 15 min preincubation) is 18 nM.

Question: And the IC50 of inhibition of protease activity (kinetic assay, 4.3 μM Z-Phe-Arg-AMC, 0.2 nM cathepsin K, 100 mM Na acetate pH 5.5, 37 °C, 15 min preincubation) [11]?
Answer: Its IC50 of inhibition of protease activity (kinetic assay, 4.3 μM Z-Phe-Arg-AMC, 0.2 nM cathepsin K, 100 mM Na acetate pH 5.5, 37 °C, 15 min preincubation) is 8.6 nM.

Question: And the IC50 of inhibition of protease activity (kinetic assay, 2.5 μM Z-Phe-Arg-AMC, 0.2 nM cathepsin L, 100 mM Na acetate pH 5.5, 37 °C, 15 min preincubation) [12]?
Answer: The IC50 of inhibition of protease activity (kinetic assay, 2.5 μM Z-Phe-Arg-AMC, 0.2 nM cathepsin L, 100 mM Na acetate pH 5.5, 37 °C, 15 min preincubation) was 0.92 nM.

Question: What about the IC50 of inhibition of protease activity (kinetic assay, 3.6 μM Z-Phe-Arg-AMC, 0.1 nM cathepsin V, 100 mM Na acetate pH 5.5, 37 °C, 15 min preincubation) [13] of the same substance?
Answer: The IC50 of inhibition of protease activity (kinetic assay, 3.6 μM Z-Phe-Arg-AMC, 0.1 nM cathepsin V, 100 mM Na acetate pH 5.5, 37 °C, 15 min preincubation) was 5.9 nM.
